This note sets out measurements from paper PMC6370846.

Data set [1] is described as follows: dual-color fluorescence cross-correlation spectroscopy (FCCS); self-aggregation: Cy5-labelled and Oregon green 488-labelled copies of the same construct mixed in equal volumes (125 µL each) at 536 µM monomer-equivalent, incubated at 310 K with shaking at 250 rpm for up to 24 h; aliquots …. To be noted: other: dual-color fluorescence cross-correlation spectroscopy (FCCS).

In data set [2] the target is α-synuclein tandem tetramer (αS-4), C-terminally Cys-tagged, dye-labelled. Briefly: dual-color fluorescence cross-correlation spectroscopy (FCCS); co-aggregation: Cy5-labelled tandem oligomer mixed with Oregon green 488-labelled monomer, equal volumes (125 µL each) at 536 µM monomer-equivalent, 310 K, shaking at 250 rpm, up to 24 h; aliquots diluted in PBS to ~134 pM and measured at 298 K; single-exponential fits.

Data set [3] concerns the target α-synuclein tandem dimer (αS-2), C-terminally Cys-tagged, dye-labelled. The description is as above.
Data set [4] deals with α-synuclein tandem octamer (αS-8), C-terminally Cys-tagged, dye-labelled. Described as above.
For data set [5], the target named is α-synuclein monomer (αS-1), C-terminally Cys-tagged, dye-labelled. Briefly: dual-color fluorescence cross-correlation spectroscopy (FCCS); self-aggregation: Cy5-labelled and Oregon green 488-labelled copies of the same construct mixed in equal volumes (125 µL each) at 536 µM monomer-equivalent, incubated at 310 K with shaking at 250 rpm for up to 24 h; aliquots diluted in PBS to ~134 pM and measured at 298 K; fractions nrg/nr and nrg/ng fitted to single-exponential growth.

Data set [6] addresses α-synuclein tandem tetramer (αS-4), C-terminally Cys-tagged, dye-labelled. The data set is described as follows: dual-color fluorescence cross-correlation spectroscopy (FCCS); co-aggregation with swapped fluorophores: Cy5-labelled monomer mixed with Oregon green 488-labelled tandem oligomer, equal volumes (125 µL each) at 536 µM monomer-equivalent, 310 K, shaking at 250 rpm, up to 24 h; aliquots diluted in PBS to ~134 pM and measured at 298 K; single-exponential fits.

The target of data set [7] is α-synuclein tandem dimer (αS-2), C-terminally Cys-tagged, dye-labelled. The description is as above.
In data set [8] the target is α-synuclein tandem octamer (αS-8), C-terminally Cys-tagged, dye-labelled. The description is as above.
For data set [9], the target named is α-synuclein tandem dimer (αS-2), C-terminally Cys-tagged, dye-labelled. The data set is described as follows: dual-color fluorescence cross-correlation spectroscopy (FCCS); self-aggregation: Cy5-labelled and Oregon green 488-labelled copies of the same construct mixed in equal volumes (125 µL each) at 536 µM monomer-equivalent, incubated at 310 K with shaking at 250 rpm for up to 24 h; aliquots diluted in PBS to ~134 pM and measured at 298 K; fractions nrg/nr and nrg/ng fitted to single-exponential growth.

Data set [10] deals with α-synuclein tandem octamer (αS-8), C-terminally Cys-tagged, dye-labelled. The description is as above.
Data set [11] concerns the target α-synuclein tandem tetramer (αS-4), C-terminally Cys-tagged, dye-labelled. Described as above.

For the substance “α-synuclein monomer (αS-1), C-terminally Cys-tagged, dye-labelled”, in [1], the “percent incorporated into dual-color aggregates after 24 hr” value was “only ~5% of αS-1 and αS-2”; the |A| of nrg/ng (extent, percent of Oregon green-labelled species in dual-color aggregates) is 8%; the |A| of nrg/nr (extent, percent of Cy5-labelled species in dual-color aggregates) came out at 6%.
Take “α-synuclein monomer (αS-1), C-terminally Cys-tagged, dye-labelled (natural protein)”: in [2], the k of nrg/ng (rate of exponential growth of co-aggregation) is 0.8 h⁻¹; the k of nrg/nr (rate of exponential growth of co-aggregation) stood at 0.23 h⁻¹; the |A| of nrg/ng (extent, percent of Oregon green-labelled αS-1 in dual-color co-aggregates) was found to be 2%; the |A| of nrg/nr (extent, percent of Cy5-labelled αS-4 in dual-color co-aggregates) amounted to 11%. For the same substance, in data set [3], the k of nrg/ng (rate of exponential growth of co-aggregation) turned out to be 0.4 h⁻¹; the k of nrg/nr (rate of exponential growth of co-aggregation) was 0.11 h⁻¹; the |A| of nrg/ng (extent, percent of Oregon green-labelled αS-1 in dual-color co-aggregates) was found to be 1.7%; the |A| of nrg/nr (extent, percent of Cy5-labelled αS-2 in dual-color co-aggregates) turned out to be 4%. In [4], the k of nrg/ng (rate of exponential growth of co-aggregation) stood at 0.4 h⁻¹; the k of nrg/nr (rate of exponential growth of co-aggregation) was found to be 0.12 h⁻¹; the |A| of nrg/ng (extent, percent of Oregon green-labelled αS-1 in dual-color co-aggregates) was 1%; the |A| of nrg/nr (extent, percent of Cy5-labelled αS-8 in dual-color co-aggregates) was found to be 40%. Further, in [5], the k of nrg/ng (rate of exponential growth of aggregation) amounted to 0.035 h⁻¹ and the k of nrg/nr (rate of exponential growth of aggregation) turned out to be 0.043 h⁻¹. Further, in data set [6], the k of nrg/ng (rate of exponential growth of co-aggregation) was 0.5 h⁻¹; the k of nrg/nr (rate of exponential growth of co-aggregation) was determined as 2 h⁻¹; the |A| of nrg/ng (extent, percent of Oregon green-labelled αS-4 in dual-color co-aggregates) is 20%; the |A| of nrg/nr (extent, percent of Cy5-labelled αS-1 in dual-color co-aggregates) was determined as 1%. In [7], the k of nrg/ng (rate of exponential growth of co-aggregation) was determined as 0.2 h⁻¹; the k of nrg/nr (rate of exponential growth of co-aggregation) amounted to 0.2 h⁻¹; the |A| of nrg/ng (extent, percent of Oregon green-labelled αS-2 in dual-color co-aggregates) stood at 4%; the |A| of nrg/nr (extent, percent of Cy5-labelled αS-1 in dual-color co-aggregates) was 5%. For the same substance, in [8], the k of nrg/ng (rate of exponential growth of co-aggregation) is 0.2 h⁻¹; the k of nrg/nr (rate of exponential growth of co-aggregation) is 0.05 h⁻¹; the |A| of nrg/ng (extent, percent of Oregon green-labelled αS-8 in dual-color co-aggregates) stood at 11%; the |A| of nrg/nr (extent, percent of Cy5-labelled αS-1 in dual-color co-aggregates) worked out at 4%.
As to “α-synuclein tandem dimer (αS-2), C-terminally Cys-tagged, dye-labelled”, in data set [1], the “percent incorporated into dual-color aggregates after 24 hr” value is “only ~5% of αS-1 and αS-2”; the |A| of nrg/ng (extent, percent of Oregon green-labelled species in dual-color aggregates) stood at 4%; the |A| of nrg/nr (extent, percent of Cy5-labelled species in dual-color aggregates) was 5%. Moreover, in data set [9], the k of nrg/ng (rate of exponential growth of aggregation) was determined as 0.2 h⁻¹ and the k of nrg/nr (rate of exponential growth of aggregation) was 0.23 h⁻¹.
As to “α-synuclein tandem octamer (αS-8), C-terminally Cys-tagged, dye-labelled”, in data set [1], the “percent incorporated into dual-color aggregates after 24 hr” value was ~35% of Cy5-labelled αS-8; the |A| of nrg/ng (extent, percent of Oregon green-labelled species in dual-color aggregates) turned out to be 26%; the |A| of nrg/nr (extent, percent of Cy5-labelled species in dual-color aggregates) was 29%. Further, in [10], the k of nrg/ng (rate of exponential growth of aggregation) turned out to be 0.06 h⁻¹ and the k of nrg/nr (rate of exponential growth of aggregation) stood at 0.15 h⁻¹.
For “α-synuclein tandem tetramer (αS-4), C-terminally Cys-tagged, dye-labelled”, in data set [1], the “percent incorporated into dual-color aggregates after 24 hr” value is ~15% of Cy5-labelled αS-4; the |A| of nrg/ng (extent, percent of Oregon green-labelled species in dual-color aggregates) is 17%; the |A| of nrg/nr (extent, percent of Cy5-labelled species in dual-color aggregates) worked out at 14%. In [11], the k of nrg/ng (rate of exponential growth of aggregation) turned out to be 0.18 h⁻¹ and the k of nrg/nr (rate of exponential growth of aggregation) is 0.17 h⁻¹.
